# From publication PMC4405695 (2015)
# Molecular target: GST-Rab6A Q72L (UniProt P20340 1-208, Q72L)
# Experiment: GTPγS-loaded Rab6A
# Sequence of GST-Rab6A Q72L (P20340 whole entry Q72L): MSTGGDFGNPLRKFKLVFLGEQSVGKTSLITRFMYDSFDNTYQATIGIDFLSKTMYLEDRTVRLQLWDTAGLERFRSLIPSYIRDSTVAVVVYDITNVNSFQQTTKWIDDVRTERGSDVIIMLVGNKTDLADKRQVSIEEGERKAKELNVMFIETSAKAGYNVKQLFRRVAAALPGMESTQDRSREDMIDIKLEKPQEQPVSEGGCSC
binder,measurement,value
KIF1C-355-His (domain or fragment) MAGASVKVAVRVRPFNARETSQDAKCVVSMQGNTTSIINPKQSKDAPKSFTFDYSYWSHTSTEDPQFASQQQVYRDIGEEMLLHAFEGYNVCIFAYGQTGAGKSYTMMGRQEPGQQGIVPQLCEDLFSRVSENQSAQLSYSVEVSYMEIYCERVRDLLNPKSRGSLRVREHPILGPYVQDLSKLAVTSYADIADLMDCGNKARTVAATNMNETSSRSHAVFTIVFTQRCHDQLTGLDSEKVSKISLVDLAGSERADSSGARGMRLKEGANINKSLTTLGKVISALADMQSKKRKSDFIPYRDSVLTWLLKENLGGNSRTAMIAALSPADINYEETLSTLRYADRTKQIRNTVSVN,Kd,170 nM
